{"source": "paper PMC9734383", "about": "(Nature Communications, 2022)", "key": {"[1]": {"target": "H3 HA (Influenza A virus H3N2, probably A/Hong …, UniProt Q91MA7, strain)", "assay": "SEC", "settings": "both partners purified"}, "[2]": {"target": "H3 HA (recombinant HA of the panel) (Influenza A virus H3N2, probably A/Hong …, UniProt Q91MA7, biotinylated (in the BLI assay))", "assay": "BLI", "settings": "both partners purified"}}, "data": [{"binder": "PN-SIA28 Fab (Fab, V domains shown) VH: QVQLVESGGGVVQPGRSLRLSCAASGFPFSSYGMHWVRQAPGKGLEWVAGVSYDGSYKYYADSVKGRFTISRDSSKSTLYLQMNSLRPEDTAVYYCARPSAIFGIYIILNGLDVWGQGTTVTVSS VL: EIVLTQSPSSVSASVGDRVTITCRATQGISSWLAWYQQKPGKPPKLLIFGASSLQSGVPSRFSGSGSGTDFTLTISSLQPEDFATYFCQQAHSFPLTFGGGTKVEIK", "values": [{"measurement": "binding result", "setting": "[1]", "result": "binds"}]}, {"binder": "PN-SIA28 Fab (Fab, V domains shown, also called PN-SIA28 Fab fragment) VH: QVQLVESGGGVVQPGRSLRLSCAASGFPFSSYGMHWVRQAPGKGLEWVAGVSYDGSYKYYADSVKGRFTISRDSSKSTLYLQMNSLRPEDTAVYYCARPSAIFGIYIILNGLDVWGQGTTVTVSS VL: EIVLTQSPSSVSASVGDRVTITCRATQGISSWLAWYQQKPGKPPKLLIFGASSLQSGVPSRFSGSGSGTDFTLTISSLQPEDFATYFCQQAHSFPLTFGGGTKVEIK", "values": [{"measurement": "binding result", "setting": "[2]", "result": "binds"}]}]}
